Results reported in US20200121703A1 (CLEVELAND CLINIC FOUNDATION, published 2020).

Target: T1, PAG (protein associated with glycosphingolipid-enriched microdomains) (UniProt Q9NWQ8 1-432)
T1 construct: Endogenous protein of human tumor cell lines, probed by immunoblot in the CD55 immunoprecipitate
T1 sequence (looked up): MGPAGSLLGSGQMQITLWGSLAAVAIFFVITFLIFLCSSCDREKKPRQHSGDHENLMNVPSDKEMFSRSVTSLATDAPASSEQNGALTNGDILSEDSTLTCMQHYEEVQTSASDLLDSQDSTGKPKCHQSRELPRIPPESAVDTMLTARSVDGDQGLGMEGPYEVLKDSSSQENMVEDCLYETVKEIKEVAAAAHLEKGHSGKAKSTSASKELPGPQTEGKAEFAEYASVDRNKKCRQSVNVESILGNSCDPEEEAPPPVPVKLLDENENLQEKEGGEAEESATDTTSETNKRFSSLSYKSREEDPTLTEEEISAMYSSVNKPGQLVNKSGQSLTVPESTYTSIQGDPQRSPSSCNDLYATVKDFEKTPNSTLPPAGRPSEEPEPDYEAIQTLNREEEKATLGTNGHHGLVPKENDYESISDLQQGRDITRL
Test: co-immunoprecipitation with anti-CD55 antibody from endometrioid CSC lysates, immunoblot for PAG
Experimental: Membranes were incubated overnight at 4° C. with primary antibodies against CD55 (1:1000) (Santa Cruz, Calif.), CD59 (1:1000) (Abcam), CD46 (1:1000) (Santa Cruz, Calif.), NANOG (1:500) (Cell Signaling), SOX2 (1:500) (Cell Signaling), OCT4 (1:500) (Cell Signaling), ROR2 (1:1000) (BD Biosciences), pJNK1 (1:1000) (T183/Y185) (Cell Signaling), JNK1 (1:1000) (Cell Signaling), p-c-Jun (1:1000) (S73) (Cell Signaling), p-c-Jun (1:1000) (S63) (Cell Signaling), c-Jun (1:1000) (Cell Signaling), pLCK (Y394) (1:1000) (BD Biosciences), LCK (1:1000) (Santa Cruz, Calif.), LIME (1:1000) (Invitrogen), PAG (1:1000) (Genetex), and (3-actin (1:1000) (Cell Signaling). Secondary anti-mouse or anti-rabbit IgG antibodies conjugated to horse radish peroxidase (HRP) (1:2000) (Thermo, Rockford, IL) were used and immunoreactive bands were visualized using the ECL plus from Pierce (Rockford, Ill., USA).
The lysates were spun at 12,000xg for 15 min at 4° C. Supernatants were incubated with rabbit anti-human CD55 primary antibody (SantaCruz, Calif.) and the corresponding antibody control for 1 hour at 4° C. Protein A/G agarose beads (Santa Cruz, Dallas, Tex.) were added to lysates which were subsequently incubated on a rotating mixer overnight at 4° C. The beads were then washed 3-4 times at 4° C., and Laemmli sample buffer was added to the beads and boiled for 5 minutes. […]

binding result: no binding
B1: CD55 (decay accelerating factor) (other, human, UniProt P08174 35-353, looked up)
chain: DCGLPPDVPNAQPALEGRTSFPEDTVITYKCEESFVKIPGEKDSVICLKGSQWSDIEEFCNRSCEVPTRLNSASLKQPYITQNYFPVGTVVEYECRPGYRREPSLSPKLTCLQNLKWSTAVEFCKKKSCPNPGEIRNGQIDVPGGILFGATISFSCNTGYKLFGSTSSFCLISGSSVQWSDPLPECREIYCPAPPQIDNGIIQGERDHYGYRQSVTYACNKGFTMIGEHSIYCTVNNDEGEWSGPPPECRGKSLTSKVPPTVQKPTTVNVPTTEVSPTSQKTTTKTTTPNAQATRSTPVSRTTKHFHETTPNKGSGTTS
modifications: GPI anchor (glycophosphatidylinositol-anchored to lipid rafts)
notes: Endogenous protein pulled down from 0.5% Triton X-100 cell lysates
